Experimental data reported in article PMC8096265, “A functional LSD1 coregulator screen reveals a novel transcriptional regulatory cascade connecting R-loop homeostasis with epigenetic regulation” (Nucleic Acids Research, 2021).
Ends that are not written are not given here.

Biological target: T1, GST-DDX19A (recombinant full-length DEAD-box helicase 19A) (UniProt Q9NUU7 1-478)
T1 construct: DEAD-box helicase 19A (DDX19A), expressed from pGEX-DDX19A; Printed both as GST-DDX19A and as DDX19A-GST; no cleavage of GST is described, and the array is detected by anti-GST. pGEX vectors usually put GST at the N-terminus (surmise); also called DDX19A-GST; recombinant DDX19A
T1 sequence (looked up): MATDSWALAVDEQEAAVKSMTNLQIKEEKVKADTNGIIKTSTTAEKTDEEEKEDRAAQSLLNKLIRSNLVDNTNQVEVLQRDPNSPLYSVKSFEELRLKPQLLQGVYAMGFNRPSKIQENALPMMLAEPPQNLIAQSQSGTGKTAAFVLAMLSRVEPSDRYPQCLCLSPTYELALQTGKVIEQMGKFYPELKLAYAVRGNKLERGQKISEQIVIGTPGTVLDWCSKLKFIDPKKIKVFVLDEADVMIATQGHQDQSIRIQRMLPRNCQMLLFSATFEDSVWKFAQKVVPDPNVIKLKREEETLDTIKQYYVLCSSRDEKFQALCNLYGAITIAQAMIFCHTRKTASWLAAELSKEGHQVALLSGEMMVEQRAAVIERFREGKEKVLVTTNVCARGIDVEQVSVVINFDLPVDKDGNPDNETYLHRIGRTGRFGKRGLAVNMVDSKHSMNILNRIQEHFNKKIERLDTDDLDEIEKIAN
Experiment: fluorescence polarisation; fluorescence anisotropy; 50 nM FITC-labelled H3.1 (16-34) peptide in 20 mM HEPES pH 7.5, 100 mM KCl, 0.1 mM DTT, 10% glycerol; DDX19A added stepwise; 23°C; fit to a simple binding equilibrium
Conditions: both partners purified

Kd: > 1000 nM
Binder: PRKQLATKAARKSAPATGG (also: FITC label, position not given here) [FITC-labelled H3.1 peptide (residues 16-34), unmodified]
